Laboratory results as given in US20130123350, “NUCLEIC ACID MOLECULE CAPABLE OF BINDING TO c-MET AND USE THEREOF” (KANAGAWA PREFECTURAL HOSPITAL ORGANIZATION, published 2013).

B1: g20 (ssRNA)
RNA: GGGACGCUCACGUACGCUAAACGUUGUGGCGAACUUCGGCCCGAACGGGAGUAACUGCAUCAGUGCCUGGACGUGCAGU
B2: g17 (ssRNA)
RNA: GGGACGCUCACGUACGCUAAAGUGAUGGCCGGCUGGAGAAACGGGCCACUCGAUCCAGGUCAGUGCCUGGACGUGCAGU
B3: g31 (ssRNA)
RNA: GGGACGCUCACGUACGCUAAAGAGUCUAUGCCGUGAGUGAGGGUGGCGCCUCGACUGCCAUCAGUGCCUGGACGUGCAGU
B4: g21 (ssRNA)
RNA: GGGACGCUCACGUACGCUAACCUUGGUGUCAUCCGACCAAAUUAGAACGGGAUGAGGAAGUCAGUGCCUGGACGUGCAGU
B5: g25 (ssRNA)
RNA: GGGACGCUCACGUACGCUAAUAGCAACAGUUCCCAGAGGUGAUCAGGCAGCCUUAAGACAUCAGUGCCUGGACGUGCAGU
B6: g12 (ssRNA)
RNA: GGGACGCUCACGUACGCUAACGCGGCCAUCCGGCGUUUGGAACGGGAUGUACACCUGACAUCAGUGCCUGGACGUGCAGU
B7: g29 (ssRNA)
RNA: GGGACGCUCACGUACGCUAAACGAGCCGUGAUUGGGUUGGCAACCCUGCUUAUGUGAGGAUCAGUGCCUGGACGUGCAGU
B8: g37 (ssRNA)
RNA: GGGACGCUCACGUACGCUAAGGUUUGCUCCGACCGACUAAAGGGAGCCUCUGUCACGAGUUCAGUGCCUGGACGUGCAGU
B9: g16 (ssRNA)
RNA: GGGACGCUCACGUACGCUAACCGCUACCGGGUGCAACGGGUAGACUGUAACCAGGUGAUAUCAGUGCCUGGACGUGCAGU
B10: g19 (ssRNA)
RNA: GGGACGCUCACGUACGCUAAGUAGCCGUGAUUGGGUUGGCUGCCCACAAUUAUCCAGGACUCAGUGCCUGGACGUGCAGU
B11: g33 (ssRNA)
RNA: GGGACGCUCACGUACGCUAAACUUUUGGCGAUCUCCGGCCGGAUACGGGAGAACGAGGUAUCAGUGCCUGGACGUGCAGU
B12: g30 (ssRNA)
RNA: GGGACGCUCACGUACGCUAAAAAUUGCCGGGAUCUGGUGUGGCGACCAUGCGGCGUGCAUUCAGUGCCUGGACGUGCAGU
B13: g36 (ssRNA)
RNA: GGGACGCUCACGUACGCUAACUUGAUUGGUCGCAACCGGACAAGGACGGGUUGAUGCAGUUCAGUGCCUGGACGUGCAGU
B14: g28 (ssRNA)
RNA: GGGACGCUCACGUACGCUAACCUGGGGGUUCCGCAGGAAUCGGGAACUAGAUUGGUGGUCUCAGUGCCUGGACGUGCAGU
B15: g35 (ssRNA)
RNA: GGGACGCUCACGUACGCUAAGAUUUGUGUGAUACCCGACACUCUAACGGGGUAGCAGGGCUCAGUGCCUGGACGUGCAGU
B16: g24 (ssRNA)
RNA: GGGACGCUCACGUACGCUAAGAGUUGUCGCACAGCGACUCGAAAAUAAUCUGUCCGACACUCAGUGCCUGGACGUGCAGU
B17: g13 (ssRNA)
RNA: GGGACGCUCACGUACGCUAAUCACUCGGACAGCCGGAGCGAAACGGGCUGUGUAAGACUGUCAGUGCCUGGACGUGCAGU
B18: g14 (ssRNA)
RNA: GGGACGCUCACGUACGCUAAUCAUCGGGACAUCGGAUGGAACGGGUGUCAAGAAGCGUGUUCAGUGCCUGGACGUGCAGU
B19: g18 (ssRNA)
RNA: GGGACGCUCACGUACGCUAAGGCACCCUAUAGGAUUCAGCCCCUAACCCGGUGUUGUGAAUCAGUGCCUGGACGUGCAGU
B20: g34 (ssRNA)
RNA: GGGACGCUCACGUACGCUAAUUUGGUGAAUUCCGACCAUUUUGCAAACGGGAUACGGGACUCAGUGCCUGGACGUGCAGU
B21: g22 (ssRNA)
RNA: GGGACGCUCACGUACGCUAAGCGUGUUUCUUCAUUUCGACGCUGGCCAACGGAAAUGCAAUCAGUGCCUGGACGUGCAGU
B22: g23 (ssRNA)
RNA: GGGACGCUCACGUACGCUAAAUGGGAGUGCGCCUCGGCUCUAACGGAGGUAUGCACGUCAUCAGUGCCUGGACGUGCAGU
B23: g15 (ssRNA)
RNA: GGGACGCUCACGUACGCUAAGACGCGGGCCACCGGCUAGCGACGGGUGGUAAAGGGCUUGUCAGUGCCUGGACGUGCAGU
B24: g26 (ssRNA)
RNA: GGGACGCUCACGUACGCUAAGCUCCACCAGGUGUAGCUAGCCUGUAGACAUCAGUAGCAUCAGUGCCUGGACGUGCAGU
B25: g38 (ssRNA)
RNA: GGGACGCUCACGUACGCUAACCAGGAGCAUUAGACCGGGGAAAGAAGGAGUACCGUCUGGUCAGUGCCUGGACGUGCAGU
B26: g27 (ssRNA)
RNA: GGGACGCUCACGUACGCUAACCUAUGCAGACCGACAUCCGGGUAUACGGGAUGAUGCGACUCAGUGCCUGGACGUGCAGU
B27: g32 (ssRNA)
RNA: GGGACGCUCACGUACGCUAAACAAGACCGGGAUGGGGGUUGGUCACACACAAAGACUGAAUCAGUGCCUGGACGUGCAGU
B28: g1-d10del (ssRNA)
RNA: GGGACGCUCACGUACGCUAAACACACUGAGAGUUUGACCAGCUAUUAAAUGGGUCGUGACUCAGUGCCUG
B29: g1-u10del (ssRNA)
RNA: GGGACGCUAAACACACUGAGAGUUUGACCAGCUAUUAAAUGGGUCGUGACUCAGUGCCUGGACGUGC
B30: g1-u20del (ssRNA)
RNA: GGGCACUGAGAGUUUGACCAGCUAUUAAAUGGGUCGUGACUCAGUGCCUGGACGUG
B31: g1-d5del (ssRNA)
RNA: GGGACGCUCACGUACGCUAAACACACUGAGAGUUUGACCAGCUAUUAAAUGGGUCGUGACUCAGUGCCUGGACGU
B32: g1-u5del (ssRNA)
RNA: GGGCACGUACGCUAAACACACUGAGAGUUUGACCAGCUAUUAAAUGGGUCGUGACUCAGUGCCUGGACGUGCAG

Molecular target: T1, rec-cMet (Recombinant Human HGF R/c-MET/Fc Chimera) (Homo sapiens, UniProt P08581;P08581 SEQ:1-283,SEQ:1-625)
Assay: SPR; rec-cMet 100 nM
Details: tags: C-terminal HIEGRMD linker, human IgG Fc (100-330), 6xHis; R&D Systems; chain copies: 2 (inferred, Fc chimera)
Method: Using these truncated RNA aptamers, the binding ability thereof to the rec-cMet was examined. The binding ability was analyzed using BIACORE (registered trademark) X (GE Healthcare) in accordance with its instructions for use, with the concentration of the rec-cMet being set to 175 nmol/L. Also, the binding ability of each of the RNA aptamers g1 and g1-trA was examined in the same manner. As a comparative example, the 40N was used, and the binding ability thereof was examined in the same manner.
The binding ability of each of the RNA aptamers to the rec-cMet was examined in the same manner as in Example 5, except that the above RNA aptamers were used. The concentration of the rec-cMet was set to 100 nmol/L. With the time point at which the introduction of the rec-cMet to the chip was started being 0 seconds, introduction of a buffer was started 60 seconds later.

T1 sequence (P08581 25-307, change not shown, chain 1 of 2): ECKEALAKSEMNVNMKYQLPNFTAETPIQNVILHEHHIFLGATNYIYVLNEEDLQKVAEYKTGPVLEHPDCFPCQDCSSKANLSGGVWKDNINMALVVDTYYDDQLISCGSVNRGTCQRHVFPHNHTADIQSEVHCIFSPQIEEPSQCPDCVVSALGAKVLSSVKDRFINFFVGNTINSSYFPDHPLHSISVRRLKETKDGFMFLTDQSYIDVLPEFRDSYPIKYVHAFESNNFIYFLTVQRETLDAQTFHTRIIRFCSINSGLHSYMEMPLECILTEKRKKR
T1 sequence (P08581 308-932, change not shown, chain 2 of 2): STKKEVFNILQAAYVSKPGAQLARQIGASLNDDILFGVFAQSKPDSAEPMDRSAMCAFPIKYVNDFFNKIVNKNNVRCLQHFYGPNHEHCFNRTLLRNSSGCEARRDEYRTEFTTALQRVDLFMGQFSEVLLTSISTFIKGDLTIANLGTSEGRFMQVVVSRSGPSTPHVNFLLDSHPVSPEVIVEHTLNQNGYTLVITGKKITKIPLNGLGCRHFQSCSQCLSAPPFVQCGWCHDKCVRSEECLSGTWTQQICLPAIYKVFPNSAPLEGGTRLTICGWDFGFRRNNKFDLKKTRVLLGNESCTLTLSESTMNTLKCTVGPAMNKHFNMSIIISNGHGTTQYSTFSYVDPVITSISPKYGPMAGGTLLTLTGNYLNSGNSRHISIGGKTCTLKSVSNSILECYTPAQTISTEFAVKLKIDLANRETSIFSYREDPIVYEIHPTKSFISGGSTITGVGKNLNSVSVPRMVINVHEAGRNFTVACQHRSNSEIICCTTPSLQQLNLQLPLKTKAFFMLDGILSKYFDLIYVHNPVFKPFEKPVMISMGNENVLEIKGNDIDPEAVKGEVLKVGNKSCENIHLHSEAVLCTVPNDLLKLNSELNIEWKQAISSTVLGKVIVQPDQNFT

Binding result, binds:
B1
B2
B3
B4
B5
B6
B7
B8
B9
B10
B11
B12
B13
B14
B15
B16
B17
B18
B19
B20
B21
B22
B23
B24
B25
B26
B27

Molecular target: T1, rec-cMet (Recombinant Human HGF …)
Assay: ELONA; signal higher than g1
Details: tags: C-terminal HIEGRMD linker, human IgG Fc (100-330), 6xHis; R&D Systems; chain copies: 2 (inferred, Fc chimera)
Method: An anti-IgG antibody (trade name: “Human IgG-Fc Antibody”, Bethyl Laboratories) was adsorbed on a 96-well plate (Iwaki, AGC Techno Glass Co., Ltd., Japan), and then was subjected to blocking using 1% bovine serum albumin. Subsequently, 50 μL of the 1 μg/mL rec-cMet was added to the plate. Further, Tris (20 mmol/L), sodium chloride (100 mmol/L), magnesium acetate (0.1 mmol/L) and Triton (registered trademark)-X100 (0.2%) were added to the plate so that their final concentrations would be as shown in the parentheses. The plate was incubated at room temperature for 3 hours, thus causing the rec-cMet to bind to the plate. After the incubation, the plate was washed three times with a washing solution. The composition of the washing solution was as follows: 20 mmol/L Tris, 100 mmol/L sodium chloride, 0.1 mmol/L magnesium acetate, and 0.2% Triton (registered trademark)-X100. As a control, incubation and washing were carried out in the same manner, except that 50 μL of the washing solution was added instead of 50 μL of the rec-cMet.
Next, a 20-mer polyadenine (poly A) was added to the 3′ end of each of the RNA aptamers. Thus, poly-A-added RNA aptamers were prepared. Each of the poly-A-added RNA aptamers was denatured, and thereafter, the denatured poly-A-added RNA aptamer was mixed with a 20-mer biotinylated polythymine with its 5′ end being biotinylated (740 nmol/L), tRNA (100 μg/mL), and an RNase inhibitor (0.16 units/mL). As a result, complementary binding occurred between the poly A in the poly-A-added RNA aptamer and the polythymine (poly T) in the biotinylated polythymine, whereby a biotin-labeled RNA aptamer was produced. The biotin-labeled RNA aptamer was added to the plate, and the plate was incubated at 4° C. for 30 minutes. Subsequently, the plate was washed, and 0.1 μg/mL HRP-streptavidin (Thermo Fisher Scientific Inc., USA) was added thereto. The plate was then washed, after which a 1-Step Ultra TMB substrate (Thermo Fisher Scientific Inc., USA) was added to the plate to cause color development, and the absorbance at 450 nm was measured.
The binding ability of each of the RNA aptamers to the rec-cMet was examined in the same manner as in Example 1, except that the truncated RNA aptamers were used. Also, the binding ability of the RNA aptamer g1 was examined in the same manner.

Binding result, binds:
B28
B29
B30
B31
B32
